Test results reported in patent publication US20220332804A1 (CSL INNOVATION, published 2022).

Tests used:
Assay in all cases: SPR, antibody captured, C2 as analyte;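 note: biacore at 37 °C, anti-C2 mAbs held by immobilised goat anti-human IgG, C2 alanine or serine mutants injected, double-referenced sensorgrams fitted to a 1:1 kinetic or steady-state model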
human C2 L279A = biological target: T1, human C2 L279A (human, UniProt P06681 21-752)
T1 sequence: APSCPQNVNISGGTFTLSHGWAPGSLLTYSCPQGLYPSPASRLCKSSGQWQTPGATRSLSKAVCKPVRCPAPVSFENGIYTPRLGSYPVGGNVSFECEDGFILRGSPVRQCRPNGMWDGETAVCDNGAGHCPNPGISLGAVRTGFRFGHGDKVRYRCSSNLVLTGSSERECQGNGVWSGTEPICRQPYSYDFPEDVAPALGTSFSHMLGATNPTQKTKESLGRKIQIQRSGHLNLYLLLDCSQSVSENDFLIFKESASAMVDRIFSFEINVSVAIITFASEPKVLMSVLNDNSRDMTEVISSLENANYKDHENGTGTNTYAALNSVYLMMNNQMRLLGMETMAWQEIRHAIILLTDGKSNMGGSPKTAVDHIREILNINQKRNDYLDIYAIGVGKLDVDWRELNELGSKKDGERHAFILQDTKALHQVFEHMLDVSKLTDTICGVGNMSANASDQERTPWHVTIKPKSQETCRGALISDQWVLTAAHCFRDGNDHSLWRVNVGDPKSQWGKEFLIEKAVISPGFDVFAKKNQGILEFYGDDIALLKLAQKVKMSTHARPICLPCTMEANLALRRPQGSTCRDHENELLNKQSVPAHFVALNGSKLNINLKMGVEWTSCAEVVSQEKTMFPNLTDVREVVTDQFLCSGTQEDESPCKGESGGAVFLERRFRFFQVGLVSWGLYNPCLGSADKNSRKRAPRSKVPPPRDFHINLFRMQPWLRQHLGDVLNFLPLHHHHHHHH

human C2 K329A = biological target: T2, human C2 K329A (human, UniProt P06681 21-752)
T2 sequence: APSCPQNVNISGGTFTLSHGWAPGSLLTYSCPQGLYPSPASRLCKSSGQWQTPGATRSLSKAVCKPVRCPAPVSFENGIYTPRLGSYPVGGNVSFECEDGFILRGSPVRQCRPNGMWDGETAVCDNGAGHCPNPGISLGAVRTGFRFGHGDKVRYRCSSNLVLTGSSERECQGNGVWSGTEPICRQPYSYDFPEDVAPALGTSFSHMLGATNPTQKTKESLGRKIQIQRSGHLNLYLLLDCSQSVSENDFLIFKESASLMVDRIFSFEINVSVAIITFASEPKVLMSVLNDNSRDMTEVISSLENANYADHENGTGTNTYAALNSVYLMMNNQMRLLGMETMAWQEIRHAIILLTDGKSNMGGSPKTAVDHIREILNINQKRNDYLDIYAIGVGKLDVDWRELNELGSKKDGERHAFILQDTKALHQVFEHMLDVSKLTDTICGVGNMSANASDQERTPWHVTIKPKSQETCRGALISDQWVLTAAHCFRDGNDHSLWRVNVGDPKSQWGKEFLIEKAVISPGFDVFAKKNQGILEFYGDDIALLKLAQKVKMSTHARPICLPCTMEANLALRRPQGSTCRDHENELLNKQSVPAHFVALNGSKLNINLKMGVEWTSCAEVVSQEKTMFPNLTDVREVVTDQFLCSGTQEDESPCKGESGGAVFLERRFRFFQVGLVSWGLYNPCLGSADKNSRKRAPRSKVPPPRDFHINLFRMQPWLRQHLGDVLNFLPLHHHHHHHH

human C2 G414A = biological target: T3, human C2 G414A (human, UniProt P06681 21-752)
T3 sequence: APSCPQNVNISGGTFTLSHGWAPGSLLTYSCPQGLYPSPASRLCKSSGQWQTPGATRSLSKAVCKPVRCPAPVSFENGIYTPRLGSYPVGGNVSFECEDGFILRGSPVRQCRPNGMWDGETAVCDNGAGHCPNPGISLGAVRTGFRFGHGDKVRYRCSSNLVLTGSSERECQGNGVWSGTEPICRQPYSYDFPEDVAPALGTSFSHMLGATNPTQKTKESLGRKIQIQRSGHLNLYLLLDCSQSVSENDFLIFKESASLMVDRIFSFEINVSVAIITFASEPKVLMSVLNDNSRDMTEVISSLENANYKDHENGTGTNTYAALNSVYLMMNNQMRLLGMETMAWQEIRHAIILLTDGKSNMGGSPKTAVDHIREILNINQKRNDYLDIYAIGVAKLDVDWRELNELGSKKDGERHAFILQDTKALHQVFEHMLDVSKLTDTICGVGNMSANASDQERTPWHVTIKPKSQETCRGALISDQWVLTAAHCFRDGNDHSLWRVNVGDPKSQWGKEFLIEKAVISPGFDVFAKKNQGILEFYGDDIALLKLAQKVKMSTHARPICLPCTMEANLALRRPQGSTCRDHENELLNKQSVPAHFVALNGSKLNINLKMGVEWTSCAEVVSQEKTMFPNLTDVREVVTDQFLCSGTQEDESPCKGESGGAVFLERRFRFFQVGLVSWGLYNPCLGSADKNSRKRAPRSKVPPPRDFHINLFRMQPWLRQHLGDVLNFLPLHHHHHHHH

human C2 A444S = biological target: T4, human C2 A444S (human, UniProt P06681 21-752)
T4 sequence: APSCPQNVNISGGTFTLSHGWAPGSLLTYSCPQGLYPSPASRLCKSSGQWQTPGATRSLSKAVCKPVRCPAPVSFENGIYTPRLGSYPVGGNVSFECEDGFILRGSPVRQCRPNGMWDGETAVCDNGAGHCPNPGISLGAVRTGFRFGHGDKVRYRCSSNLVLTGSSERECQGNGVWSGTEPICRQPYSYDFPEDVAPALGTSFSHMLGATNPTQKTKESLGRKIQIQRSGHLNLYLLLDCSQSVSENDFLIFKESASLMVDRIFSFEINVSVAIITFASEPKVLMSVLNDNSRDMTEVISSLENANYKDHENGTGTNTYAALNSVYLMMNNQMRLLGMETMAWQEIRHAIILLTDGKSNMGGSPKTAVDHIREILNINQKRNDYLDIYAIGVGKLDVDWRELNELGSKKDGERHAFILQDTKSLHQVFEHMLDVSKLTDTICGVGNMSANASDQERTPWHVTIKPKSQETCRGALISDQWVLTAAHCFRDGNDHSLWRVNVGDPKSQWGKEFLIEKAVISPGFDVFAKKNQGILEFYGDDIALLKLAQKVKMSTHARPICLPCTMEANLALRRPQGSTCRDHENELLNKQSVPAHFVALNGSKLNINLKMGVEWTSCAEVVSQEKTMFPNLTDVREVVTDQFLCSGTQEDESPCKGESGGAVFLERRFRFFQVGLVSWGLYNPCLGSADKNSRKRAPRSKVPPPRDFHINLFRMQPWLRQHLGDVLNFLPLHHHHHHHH

B1: RF16-242 (antibody, human IgG4 S228P, lambda, V domains shown)
VH: EVQLLQSGAEVKKPGESLKISCKGSGYSFTSYWIGWVRQMPGKGLEWMGIIYPGDSDTRYSPSFQGQVTISADKSISTAYLQWSSLKASDTAMYYCARRGHYGDYFDYWGQGTLVTVSS
VL: SYELTQPPSVSVSPGQTARITCSGDALPKKYAYWYHQKSGQAPVLVIYEDRRRPSEIPERFSGSSSGTMATLTITGAQVEDEGVYFCYSRDRAGNQRVFGGGTQLTVLG
notes: pH-dependent anti-C2 antibody from a phage display library
Kd (human C2 L279A): 49.2 nM | Kd (human C2 K329A): 14.8 nM | Kd (human C2 G414A): 4.2 nM | Kd (human C2 A444S): 22.4 nM
